Laboratory results taken from paper PMC3531455, “PTH1 Receptor Is Involved in Mediating Cellular Response to Long-Chain Polyunsaturated Fatty Acids” (PLoS ONE, 2012).

What was measured:
[1] = molecular target: Parathyroid hormone type 1 receptor (PTH1R) (human) (UniProt Q03431)
[2] = molecular target: Parathyroid hormone type 1 receptor (PTH1R) (human) (UniProt Q03431); experiment: fluorescence polarisation; fluorescence anisotropy, competitive displacement of 2 nM PTH(1–34)^TMR from PTH1R membrane fractions of transfected HEK293 cells; DPBS, 4 hours, room temperature; 96-well plates, 150 µL; IC50 converted to Ki by the Cheng-Prusoff equation
PTH1 receptor (PTH1R) [3] = molecular target: T1, PTH1 receptor (PTH1R) (Homo sapiens, UniProt Q03431); experiment: competitive fluorescence anisotropy displacement of PTH([…])TMR; type: binding
T1 construct: PTH1R in membrane fractions of transfected HEK293 cells
T1 sequence (Q03431 27-593): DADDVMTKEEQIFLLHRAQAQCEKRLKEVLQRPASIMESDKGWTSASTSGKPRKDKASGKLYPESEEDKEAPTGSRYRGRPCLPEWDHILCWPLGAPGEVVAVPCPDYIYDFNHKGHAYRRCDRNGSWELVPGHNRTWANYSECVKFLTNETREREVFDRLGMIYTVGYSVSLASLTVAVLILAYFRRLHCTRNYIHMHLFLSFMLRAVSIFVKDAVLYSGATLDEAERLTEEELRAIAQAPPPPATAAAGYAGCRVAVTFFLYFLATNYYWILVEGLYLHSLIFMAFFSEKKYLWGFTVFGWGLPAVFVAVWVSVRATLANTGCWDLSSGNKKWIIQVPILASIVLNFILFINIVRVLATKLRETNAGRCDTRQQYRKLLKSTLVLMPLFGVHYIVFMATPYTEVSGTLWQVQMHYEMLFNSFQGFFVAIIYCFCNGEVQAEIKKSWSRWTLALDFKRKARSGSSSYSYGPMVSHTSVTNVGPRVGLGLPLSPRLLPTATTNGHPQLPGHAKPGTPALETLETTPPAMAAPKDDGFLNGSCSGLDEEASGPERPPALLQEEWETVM

PTH1 receptor (PTH1R) [4] = molecular target: T1, PTH1 receptor (PTH1R); experiment: competitive fluorescence anisotropy displacement of PTH([…])TMR; supported by PTH-CC FRET conformational sensor; type: binding

Human PTH(1–34) (peptide)
ERK1/2 phosphorylation (Emax = pERKmax/ERK, western blot) in HEK293 cells transfected with PTH1R, PTH(1–34) dose response, 5 minutes; no significant increase in untransfected HEK293 cells [1]: 3.5 pERK/ERK
IC50 [2]: 3.43 nM
Ki [2]: 2.4 nM

Human [Lys-13(Nε-5-carboxy-TMR)]PTH(1–34)NH2 (peptide)
Ki [2]: 4.66 nM

CC/C=C\C/C=C\C/C=C\C/C=C\C/C=C\C/C=C\CCC(=O)O [DHA, docosahexaenoic acid]
Ki (PTH1 receptor (PTH1R) [3]): 0.54 ± 0.16 nM

CC/C=C\C/C=C\C/C=C\C/C=C\C/C=C\CCCC(=O)O [EPA, eicosapentaenoic acid]
Ki (PTH1 receptor (PTH1R) [4]): 0.69 ± 0.25 nM
